Measured values as given in patent publication US20210063414A1, “METHODS FOR PREVENTING AND/OR TREATING BONE LOSS CONDITIONS BY MODULATING IRISIN” (Dana-Farber Cancer Institute, Inc., priority 2018, published 2021).

Tests used:
[1] = target: T1, CD81 antigen (Cd81) of MLO-Y4 cells (mouse) (UniProt P35762); experiment: DTSSP cross-linking on MLO-Y4 cells, his-tag pull-down, TMT mass spectrometry; irisin channel
T1 sequence (looked up): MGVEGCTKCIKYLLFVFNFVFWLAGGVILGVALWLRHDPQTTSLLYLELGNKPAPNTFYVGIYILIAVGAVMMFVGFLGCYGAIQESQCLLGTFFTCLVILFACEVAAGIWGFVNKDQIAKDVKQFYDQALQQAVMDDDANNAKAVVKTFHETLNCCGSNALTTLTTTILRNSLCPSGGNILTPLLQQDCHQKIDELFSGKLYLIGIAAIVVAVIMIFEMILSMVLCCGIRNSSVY

[2] = target: Fibronectin type III domain-containing protein 3B (Fndc3b) of MLO-Y4 cells (mouse) (UniProt Q6NWW9); experiment: as above
[3] = target: Membrane magnesium transporter 1 (Mmgt1) of MLO-Y4 cells (mouse) (UniProt Q8K273); experiment: as above
[4] = target: Protocadherin alpha-4 (Pcdha4) of MLO-Y4 cells (mouse) (UniProt O88689); experiment: as above
[5] = target: T1, CD81 antigen (Cd81) of MLO-Y4 cells (mouse); experiment: DTSSP cross-linking of his-tag ligand on MLO-Y4 cells, his-tag pull-down, TMT quantitative mass spectrometry; ratio to his-tag adipsin control
[6] = target: Fibronectin type III domain-containing protein 3B (Fndc3b) of MLO-Y4 cells (mouse) (UniProt Q6NWW9); experiment: as above
[7] = target: Membrane magnesium transporter 1 (Mmgt1) of MLO-Y4 cells (mouse) (UniProt Q8K273); experiment: as above
[8] = target: Protocadherin alpha-4 (Pcdha4) of MLO-Y4 cells (mouse) (UniProt O88689); experiment: as above
[9] = target: T1, CD81 antigen (Cd81) of MLO-Y4 cells (mouse); experiment: DTSSP cross-linking on MLO-Y4 cells, his-tag pull-down, TMT mass spectrometry; adipsin (control) channel
[10] = target: Fibronectin type III domain-containing protein 3B (Fndc3b) of MLO-Y4 cells (mouse) (UniProt Q6NWW9); experiment: as above
[11] = target: T2, Integrin alpha-V (Itgav) of MLO-Y4 cells (mouse) (UniProt P43406); experiment: as above
T2 sequence (looked up): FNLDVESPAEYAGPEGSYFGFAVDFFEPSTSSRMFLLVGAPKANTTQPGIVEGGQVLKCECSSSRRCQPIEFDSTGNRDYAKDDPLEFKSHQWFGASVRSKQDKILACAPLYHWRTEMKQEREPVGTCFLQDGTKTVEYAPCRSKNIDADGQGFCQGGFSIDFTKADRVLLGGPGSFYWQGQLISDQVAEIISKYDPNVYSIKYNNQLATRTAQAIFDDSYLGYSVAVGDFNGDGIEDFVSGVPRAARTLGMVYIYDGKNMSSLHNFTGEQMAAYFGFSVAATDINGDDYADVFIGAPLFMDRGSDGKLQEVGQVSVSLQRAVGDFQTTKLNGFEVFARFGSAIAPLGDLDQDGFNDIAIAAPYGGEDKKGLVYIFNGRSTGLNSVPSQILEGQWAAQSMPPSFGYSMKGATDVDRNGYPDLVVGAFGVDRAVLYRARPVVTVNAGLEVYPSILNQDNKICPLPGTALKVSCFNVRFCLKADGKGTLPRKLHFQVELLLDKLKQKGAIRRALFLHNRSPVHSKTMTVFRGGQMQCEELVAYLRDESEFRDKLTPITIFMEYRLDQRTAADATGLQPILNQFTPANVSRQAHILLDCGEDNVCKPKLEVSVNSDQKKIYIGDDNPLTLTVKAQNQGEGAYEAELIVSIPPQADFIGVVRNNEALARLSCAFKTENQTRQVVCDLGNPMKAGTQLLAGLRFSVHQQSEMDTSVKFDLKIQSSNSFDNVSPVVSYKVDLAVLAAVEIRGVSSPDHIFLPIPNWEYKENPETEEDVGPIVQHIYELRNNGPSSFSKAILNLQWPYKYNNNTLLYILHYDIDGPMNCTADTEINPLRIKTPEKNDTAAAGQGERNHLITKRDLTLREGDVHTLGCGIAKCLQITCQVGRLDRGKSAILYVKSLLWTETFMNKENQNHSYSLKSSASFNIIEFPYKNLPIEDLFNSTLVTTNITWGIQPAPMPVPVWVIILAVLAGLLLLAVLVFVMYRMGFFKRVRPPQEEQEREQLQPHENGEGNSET

[12] = target: Integrin beta-1 (Itgb1) of MLO-Y4 cells (mouse) (UniProt P09055); experiment: as above
[13] = target: T3, Integrin beta-5 (Itgb5) of MLO-Y4 cells (mouse) (UniProt O70309); experiment: as above
T3 sequence (looked up): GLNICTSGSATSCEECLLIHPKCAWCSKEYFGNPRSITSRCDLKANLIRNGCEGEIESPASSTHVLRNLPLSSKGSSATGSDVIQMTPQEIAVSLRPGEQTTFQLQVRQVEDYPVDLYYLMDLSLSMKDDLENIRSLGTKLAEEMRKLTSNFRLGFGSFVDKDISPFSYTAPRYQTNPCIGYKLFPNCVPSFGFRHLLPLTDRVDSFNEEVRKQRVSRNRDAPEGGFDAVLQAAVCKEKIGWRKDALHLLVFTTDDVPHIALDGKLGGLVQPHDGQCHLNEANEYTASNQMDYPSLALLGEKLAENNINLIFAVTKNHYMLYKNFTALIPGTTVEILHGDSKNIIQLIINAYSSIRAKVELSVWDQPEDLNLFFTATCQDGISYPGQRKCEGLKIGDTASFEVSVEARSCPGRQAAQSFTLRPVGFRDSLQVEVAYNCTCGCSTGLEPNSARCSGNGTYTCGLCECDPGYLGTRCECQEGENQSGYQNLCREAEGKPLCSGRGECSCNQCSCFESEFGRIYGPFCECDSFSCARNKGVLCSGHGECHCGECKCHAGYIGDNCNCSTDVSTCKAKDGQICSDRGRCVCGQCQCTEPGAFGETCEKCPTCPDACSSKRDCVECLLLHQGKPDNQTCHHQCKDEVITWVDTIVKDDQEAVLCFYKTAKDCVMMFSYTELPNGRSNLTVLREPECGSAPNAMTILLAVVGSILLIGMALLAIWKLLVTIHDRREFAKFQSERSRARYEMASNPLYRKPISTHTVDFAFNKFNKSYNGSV

[14] = target: T4, Membrane magnesium transporter 1 (Mmgt1) of MLO-Y4 cells (mouse) (UniProt Q8K273); experiment: as above
T4 sequence (looked up): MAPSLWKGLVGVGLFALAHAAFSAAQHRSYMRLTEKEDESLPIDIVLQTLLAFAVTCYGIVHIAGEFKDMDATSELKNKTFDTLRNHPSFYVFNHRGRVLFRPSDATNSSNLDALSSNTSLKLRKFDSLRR

[15] = target: Protocadherin alpha-4 (Pcdha4) of MLO-Y4 cells (mouse) (UniProt O88689); experiment: as above

Protocadherin alpha-4 (Pcdha4) of MLO-Y4 cells (mouse), sequence (O88689 other isoform, or with tags, fused parts or gaps): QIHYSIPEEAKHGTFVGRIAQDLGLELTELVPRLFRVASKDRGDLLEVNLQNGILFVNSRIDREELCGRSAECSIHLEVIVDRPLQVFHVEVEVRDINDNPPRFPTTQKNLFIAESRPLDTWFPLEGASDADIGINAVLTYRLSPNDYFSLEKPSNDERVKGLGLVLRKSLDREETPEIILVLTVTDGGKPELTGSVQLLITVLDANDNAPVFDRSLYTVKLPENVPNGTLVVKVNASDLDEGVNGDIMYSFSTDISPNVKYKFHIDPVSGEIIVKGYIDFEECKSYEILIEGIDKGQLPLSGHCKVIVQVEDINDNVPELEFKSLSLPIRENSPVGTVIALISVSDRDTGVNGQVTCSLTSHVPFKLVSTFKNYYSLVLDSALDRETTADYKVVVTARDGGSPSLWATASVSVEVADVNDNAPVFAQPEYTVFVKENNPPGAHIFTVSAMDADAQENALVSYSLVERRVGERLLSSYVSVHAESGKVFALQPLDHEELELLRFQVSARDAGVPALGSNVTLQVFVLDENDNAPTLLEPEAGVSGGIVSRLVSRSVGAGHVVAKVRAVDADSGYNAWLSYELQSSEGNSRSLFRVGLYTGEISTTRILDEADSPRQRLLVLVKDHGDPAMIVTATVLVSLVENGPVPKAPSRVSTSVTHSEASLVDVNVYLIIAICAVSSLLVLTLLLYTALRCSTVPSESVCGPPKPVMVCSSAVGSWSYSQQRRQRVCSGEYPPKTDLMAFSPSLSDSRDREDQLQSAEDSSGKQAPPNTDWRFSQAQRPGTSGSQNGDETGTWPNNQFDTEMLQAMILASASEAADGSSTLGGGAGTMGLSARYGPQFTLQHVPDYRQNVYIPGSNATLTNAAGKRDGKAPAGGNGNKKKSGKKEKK
Fibronectin type III domain-containing protein 3B (Fndc3b) of MLO-Y4 cells (mouse), sequence (Q6NWW9 whole entry, the tested form may be a part): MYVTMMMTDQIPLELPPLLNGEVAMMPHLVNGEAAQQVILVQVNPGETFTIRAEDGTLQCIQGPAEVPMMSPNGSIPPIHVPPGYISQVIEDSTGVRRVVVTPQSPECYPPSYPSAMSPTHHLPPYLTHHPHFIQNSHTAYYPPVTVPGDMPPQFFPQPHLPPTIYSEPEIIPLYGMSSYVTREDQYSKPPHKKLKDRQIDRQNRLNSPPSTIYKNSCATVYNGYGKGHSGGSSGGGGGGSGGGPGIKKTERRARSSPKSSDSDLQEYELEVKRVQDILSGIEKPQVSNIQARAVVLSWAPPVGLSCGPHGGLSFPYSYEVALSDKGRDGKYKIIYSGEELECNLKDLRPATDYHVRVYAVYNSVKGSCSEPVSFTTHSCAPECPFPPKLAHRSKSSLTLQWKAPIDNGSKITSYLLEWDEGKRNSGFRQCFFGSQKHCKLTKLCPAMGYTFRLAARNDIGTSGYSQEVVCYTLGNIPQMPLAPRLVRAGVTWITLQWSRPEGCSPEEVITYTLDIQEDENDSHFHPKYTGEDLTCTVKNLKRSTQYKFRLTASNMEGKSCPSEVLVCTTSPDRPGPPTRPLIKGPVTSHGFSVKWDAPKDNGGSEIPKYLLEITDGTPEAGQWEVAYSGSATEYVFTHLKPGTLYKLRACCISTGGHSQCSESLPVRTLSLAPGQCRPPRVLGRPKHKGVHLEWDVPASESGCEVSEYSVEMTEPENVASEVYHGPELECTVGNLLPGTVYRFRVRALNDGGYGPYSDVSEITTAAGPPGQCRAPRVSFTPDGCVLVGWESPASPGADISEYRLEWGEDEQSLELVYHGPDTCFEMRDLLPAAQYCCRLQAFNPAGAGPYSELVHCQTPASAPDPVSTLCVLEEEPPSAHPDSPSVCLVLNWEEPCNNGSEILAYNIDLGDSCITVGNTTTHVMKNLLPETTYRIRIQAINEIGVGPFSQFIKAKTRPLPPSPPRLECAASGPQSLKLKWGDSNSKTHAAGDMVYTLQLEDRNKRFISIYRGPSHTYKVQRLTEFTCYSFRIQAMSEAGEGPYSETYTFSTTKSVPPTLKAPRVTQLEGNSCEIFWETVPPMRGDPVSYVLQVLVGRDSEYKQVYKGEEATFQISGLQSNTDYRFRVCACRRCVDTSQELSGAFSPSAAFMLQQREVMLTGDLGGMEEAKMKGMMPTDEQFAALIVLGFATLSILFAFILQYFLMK
His-tag adipsin (R&D Systems, Cat. # AF1824-SP), sequence (P00746 26-253): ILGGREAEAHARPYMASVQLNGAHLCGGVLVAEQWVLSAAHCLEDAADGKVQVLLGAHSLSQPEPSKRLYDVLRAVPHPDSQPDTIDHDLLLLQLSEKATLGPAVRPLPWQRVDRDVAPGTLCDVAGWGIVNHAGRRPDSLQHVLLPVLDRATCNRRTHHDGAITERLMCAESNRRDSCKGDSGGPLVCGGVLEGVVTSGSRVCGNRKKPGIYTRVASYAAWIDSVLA
Integrin beta-1 (Itgb1) of MLO-Y4 cells (mouse), sequence (P09055 21-798): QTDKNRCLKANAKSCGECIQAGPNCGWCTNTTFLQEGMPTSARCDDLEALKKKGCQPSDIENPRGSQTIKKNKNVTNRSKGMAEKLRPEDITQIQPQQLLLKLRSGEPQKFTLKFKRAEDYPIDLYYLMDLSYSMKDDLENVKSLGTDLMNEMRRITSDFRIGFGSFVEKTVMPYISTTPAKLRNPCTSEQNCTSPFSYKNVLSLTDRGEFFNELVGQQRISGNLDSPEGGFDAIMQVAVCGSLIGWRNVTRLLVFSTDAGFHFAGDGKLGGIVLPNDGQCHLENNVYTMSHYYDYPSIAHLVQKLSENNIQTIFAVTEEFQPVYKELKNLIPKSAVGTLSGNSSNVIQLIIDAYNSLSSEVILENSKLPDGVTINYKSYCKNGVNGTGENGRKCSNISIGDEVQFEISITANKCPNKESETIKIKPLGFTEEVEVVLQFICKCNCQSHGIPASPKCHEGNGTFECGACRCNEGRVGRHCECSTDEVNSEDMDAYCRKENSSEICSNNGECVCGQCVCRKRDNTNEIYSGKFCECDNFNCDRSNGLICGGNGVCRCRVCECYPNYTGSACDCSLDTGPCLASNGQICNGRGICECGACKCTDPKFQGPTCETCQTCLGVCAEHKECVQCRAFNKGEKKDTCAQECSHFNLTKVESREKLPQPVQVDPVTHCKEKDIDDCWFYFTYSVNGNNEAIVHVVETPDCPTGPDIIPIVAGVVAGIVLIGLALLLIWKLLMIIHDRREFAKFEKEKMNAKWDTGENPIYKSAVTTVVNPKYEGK

Substance	summed signal-to-noise value for TMT channel [1]	summed signal-to-noise value for TMT channel [2]	summed signal-to-noise value for TMT channel [3]	summed signal-to-noise value for TMT channel [4]	irsin/adipsin (TMT ratio) [5]	irsin/adipsin (TMT ratio) [6]	irsin/adipsin (TMT ratio) [7]	irsin/adipsin (TMT ratio) [8]	summed signal-to-noise value for TMT channel [9]	summed signal-to-noise value for TMT channel [10]	summed signal-to-noise value for TMT channel [11]	summed signal-to-noise value for TMT channel [12]	summed signal-to-noise value for TMT channel [13]	summed signal-to-noise value for TMT channel [14]	summed signal-to-noise value for TMT channel [15]
His-tag recombinant irisin (irisin (human/mouse) with a C-terminal 10 his tag, produced in HEK293 cells) (from UniProt Q8K3V5 60-171) (ligand)	427	1290	51.2	75.2	4.05	2.88	2.94	4.39							
His-tag adipsin (R&D Systems, Cat. # AF1824-SP)									105	449	54.4	250	148	17.4	17.1
